In patent US20240279345A1, “ALPHA 5 BETA 1 INTEGRIN BINDING AGENTS AND USES THEREOF” (PASITHEA THERAPEUTICS CORP., priority 2021, published 2024):
Substitutions are numbered along the chain they refer to.

B1: A2-6C10 (antibody, V domains shown)
VH: QVQLKESGPGLVAPSQSLSITCTISGFSLTTYGVHWVRQPPGKGLEWLVVIWSDGSTTYNSALKSRLNITKDNSKSQVFLKMNSLQTDDTAMYYCVRHGGLLRRDAMDYWGQGTSVTVSS
VL: QIVLTQSPAIMSASLGERVTMTCTASSSVSSNSFHWYQQKPGSSPKLWLYSTSNLASGVPARFSGSGSGTSYSLTISSMEAEDAATYYCHQYLRSPPTFGGGTKLEIK
notes: mouse hybridoma antibody
B2: A2-8H11 (antibody, V domains shown)
VH: B1 VH
VL: B1 VL
notes: mouse hybridoma antibody
B3: A2-9A11 (antibody, V domains shown)
VH: B1 VH
VL: B1 VL
notes: mouse hybridoma antibody
B4: A-3A08 (antibody, V domains shown)
VH: B1 VH
VL: B1 VL
notes: mouse hybridoma supernatant
B5: A-4G02 (antibody, V domains shown)
VH: QVQLKESGPGLVAPSQSLSITCTISGFSLTSYGVHWVRQPPGKGLEWLVVIWSDGSTTYNSTLKSRLSISKDNSKSQVFFKMNSLQTDDTAMYYCARHYDYDGDWFAYWGQGTLVTVSA
VL: B1 VL with S28R, F34L, L49I
notes: mouse hybridoma supernatant
B6: A-7D06 (antibody, V domains shown)
VH: B1 VH
VL: B1 VL
notes: mouse hybridoma supernatant
B7: A-11G01 (antibody, V domains shown)
VH: B1 VH
VL: B1 VL
notes: mouse hybridoma supernatant
B8: A-14G08 (antibody, V domains shown)
VH: QVQLQQPGAELVKPGASVKLSCKASGYTFTIYWINWVKQRPGQGLEWIGKIYPGSISTDYNEKFKSKATLTVDTSSSTAYMQLSSLTSDDSAVYYCAITGTGGLAYWGQGTLVTVSA
VL: ENVLTQSPAIMSASLGEKVTMTCRASSSVNYMYWYQQKSDASPKLWIYFTSSLAPGVPGRFSGSGSGNSYSLTISTMEGEDAATYYCQQFTTSPFTFGSGTKLEIK
notes: mouse hybridoma supernatant
B9: A-15B08 (antibody, V domains shown)
VH: B5 VH
VL: B1 VL with S28R, F34L, L49I
notes: mouse hybridoma supernatant in this assay
B10: A-15H11 (antibody, V domains shown)
VH: B8 VH
VL: B8 VL
notes: mouse hybridoma supernatant
B11: C-8G11 (antibody, V domains shown)
VH: QVQLKESGPDLVAPSQSLSITCTVSGFSLTDYGVHWVRQPPGKGLEWLVVIWSDGSTTYNSALKSRLSITKDTSKRQVFLKMNSLQTDDTAMYYCARHAPSFIRYGSRYDALDYWGQGTSVTVSS
VL: B1 VL with M21L, S30T, N32S, S33F, F34L, L49I, L93H
notes: mouse hybridoma supernatant
B12: C-14D12 (antibody, V domains shown)
VH: B11 VH
VL: B1 VL with M21L, S30T, N32S, S33F, F34L, L49I, L93H
notes: as for B9

What follows are binders tested against T1, recombinant human α5β1 integrin (rh-α5β1; R&D Systems, cat. no. 3230-A5) (human, UniProt P08648 42-995; P05556 21-728) (assay: ELISA, coated rh-α5β1, supernatant 1:10).
T1 construct: bought recombinant heterodimer
T1 sequence (P08648 42-995 limits assumed, form in doubt, chain 1 of 2): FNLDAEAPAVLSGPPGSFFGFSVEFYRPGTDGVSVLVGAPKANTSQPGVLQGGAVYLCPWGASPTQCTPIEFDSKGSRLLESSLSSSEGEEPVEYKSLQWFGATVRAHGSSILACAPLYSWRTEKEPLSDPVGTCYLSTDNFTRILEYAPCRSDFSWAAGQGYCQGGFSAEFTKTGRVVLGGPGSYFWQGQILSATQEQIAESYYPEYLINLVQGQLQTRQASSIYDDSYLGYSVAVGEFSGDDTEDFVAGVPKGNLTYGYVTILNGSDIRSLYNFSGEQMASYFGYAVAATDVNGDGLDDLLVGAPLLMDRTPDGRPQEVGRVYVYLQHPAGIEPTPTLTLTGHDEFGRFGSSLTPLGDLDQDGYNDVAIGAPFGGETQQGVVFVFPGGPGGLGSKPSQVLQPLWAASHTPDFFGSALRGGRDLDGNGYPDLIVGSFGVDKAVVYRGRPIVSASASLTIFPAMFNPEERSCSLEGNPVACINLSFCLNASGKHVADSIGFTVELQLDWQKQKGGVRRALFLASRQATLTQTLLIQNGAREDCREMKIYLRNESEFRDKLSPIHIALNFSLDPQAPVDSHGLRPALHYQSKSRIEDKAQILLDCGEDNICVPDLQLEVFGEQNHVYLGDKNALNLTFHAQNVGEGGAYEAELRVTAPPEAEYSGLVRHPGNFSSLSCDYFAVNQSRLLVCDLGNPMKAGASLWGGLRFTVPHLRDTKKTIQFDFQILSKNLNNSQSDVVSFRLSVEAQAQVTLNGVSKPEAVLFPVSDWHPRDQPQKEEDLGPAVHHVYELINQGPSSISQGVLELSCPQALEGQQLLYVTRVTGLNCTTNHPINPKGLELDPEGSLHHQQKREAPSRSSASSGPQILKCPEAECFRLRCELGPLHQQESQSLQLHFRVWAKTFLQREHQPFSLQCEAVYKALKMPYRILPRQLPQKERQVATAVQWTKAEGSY
T1 sequence (P05556 21-728 limits assumed, form in doubt, chain 2 of 2): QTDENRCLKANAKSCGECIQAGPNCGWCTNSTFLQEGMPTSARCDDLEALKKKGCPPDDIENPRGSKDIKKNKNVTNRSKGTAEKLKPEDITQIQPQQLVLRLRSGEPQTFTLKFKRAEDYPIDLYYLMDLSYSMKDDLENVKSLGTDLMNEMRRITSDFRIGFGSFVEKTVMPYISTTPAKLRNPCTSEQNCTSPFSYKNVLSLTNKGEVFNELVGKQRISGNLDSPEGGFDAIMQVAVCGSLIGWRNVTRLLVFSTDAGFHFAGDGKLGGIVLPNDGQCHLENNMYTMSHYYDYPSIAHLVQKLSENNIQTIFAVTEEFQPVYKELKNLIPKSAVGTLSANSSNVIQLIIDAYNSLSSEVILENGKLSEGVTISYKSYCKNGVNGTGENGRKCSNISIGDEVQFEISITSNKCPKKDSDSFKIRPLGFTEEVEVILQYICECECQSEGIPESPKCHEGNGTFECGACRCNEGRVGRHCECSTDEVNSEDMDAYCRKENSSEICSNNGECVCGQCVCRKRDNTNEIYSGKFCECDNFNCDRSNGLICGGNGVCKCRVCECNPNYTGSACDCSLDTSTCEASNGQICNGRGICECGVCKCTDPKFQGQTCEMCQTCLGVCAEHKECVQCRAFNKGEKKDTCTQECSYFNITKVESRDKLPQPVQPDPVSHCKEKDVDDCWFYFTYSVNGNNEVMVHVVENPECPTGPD
Experimental: (§1) Plates were washed 3 times with Wash Buffer (1× Tris Buffered Saline containing 0.05% Tween20), blocked with 2% BSA in 1×TBS (made from 10× Thermo Scientific Blocker BSA (10×) in TBS; Thermo Fisher Scientific, Waltham, MA, cat. no. 37520) for 2 hours at room temperature (RT) then incubated with hybridoma supernatants diluted 1:10 with Standard Diluent (2% BSA, 1×TBS, 0.05% Tween20). […] Absorbance 450 nm was measured.
In the case of B1, the “Absorbance 450 nm” value is reported as 2.01. In the case of B2, the “Absorbance 450 nm” value is reported as 1.45. For B3, the “Absorbance 450 nm” value was 1.91.

The binders below were run against T2, recombinant human α5β1 integrin (human, UniProt P08648 42-995; P05556 21-728) (assay: ELISA, coated integrin, supernatant 1:10).
T2 construct: also called rh-α5β1
T2 sequence (P08648 42-995 limits assumed, form in doubt, chain 1 of 2): as the sequence (P08648 42-995 limits assumed, form in doubt, chain 1 of 2) above
T2 sequence (P05556 21-728 limits assumed, form in doubt, chain 2 of 2): as the sequence (P05556 21-728 limits assumed, form in doubt, chain 2 of 2) above
Experimental: as §1
With B4 the “Absorbance 450 nm” value was 0.352 A450. With B5 the “Absorbance 450 nm” value was 0.687 A450. In the case of B6, the “Absorbance 450 nm” value is reported as 0.613 A450. With B7 the “Absorbance 450 nm” value was 0.519 A450. B8 was tested, and the “Absorbance 450 nm” value was 1.17 A450. B9 was tested, and the “Absorbance 450 nm” value was 0.824 A450. B10 was tested, and the “Absorbance 450 nm” value was 1.25 A450. B11 was tested, and the “Absorbance 450 nm” value was 0.805 A450. B12 was tested, and the “Absorbance 450 nm” value was 0.702 A450.

The binders below were run against T3, recombinant mouse α5β1 integrin (mouse, UniProt P11688 45-999; P09055 21-728) (assay: ELISA, coated integrin, supernatant 1:10).
T3 construct: bought recombinant heterodimer (R&D Systems cat. 7728-A5) coated on the plate; also called rm-α5β1
T3 sequence (P11688 45-999 limits assumed, form in doubt, chain 1 of 2): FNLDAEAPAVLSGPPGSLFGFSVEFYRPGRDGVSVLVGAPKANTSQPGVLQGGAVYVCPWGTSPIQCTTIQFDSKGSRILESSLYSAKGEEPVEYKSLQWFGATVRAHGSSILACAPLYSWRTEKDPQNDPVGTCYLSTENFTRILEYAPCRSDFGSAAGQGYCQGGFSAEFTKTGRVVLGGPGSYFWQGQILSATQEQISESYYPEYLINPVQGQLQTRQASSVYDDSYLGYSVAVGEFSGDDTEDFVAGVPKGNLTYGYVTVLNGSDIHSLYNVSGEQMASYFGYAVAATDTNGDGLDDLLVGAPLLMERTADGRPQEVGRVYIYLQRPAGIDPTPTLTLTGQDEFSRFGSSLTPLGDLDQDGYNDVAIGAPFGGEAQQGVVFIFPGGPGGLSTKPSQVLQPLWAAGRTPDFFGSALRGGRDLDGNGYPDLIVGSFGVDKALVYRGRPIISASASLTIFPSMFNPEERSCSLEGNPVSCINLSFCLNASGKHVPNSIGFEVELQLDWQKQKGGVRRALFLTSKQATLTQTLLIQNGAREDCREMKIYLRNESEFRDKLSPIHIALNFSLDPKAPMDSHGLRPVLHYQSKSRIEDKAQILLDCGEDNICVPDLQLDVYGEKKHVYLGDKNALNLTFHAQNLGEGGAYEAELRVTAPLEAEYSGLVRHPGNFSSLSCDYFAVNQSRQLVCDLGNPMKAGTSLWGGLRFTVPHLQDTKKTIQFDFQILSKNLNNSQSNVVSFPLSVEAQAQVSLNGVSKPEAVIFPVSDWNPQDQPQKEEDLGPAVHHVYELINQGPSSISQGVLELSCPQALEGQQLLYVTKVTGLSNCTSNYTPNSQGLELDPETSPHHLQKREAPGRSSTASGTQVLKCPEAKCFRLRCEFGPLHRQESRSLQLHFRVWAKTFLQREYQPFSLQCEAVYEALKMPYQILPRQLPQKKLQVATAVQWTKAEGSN
T3 sequence (P09055 21-728 limits assumed, form in doubt, chain 2 of 2): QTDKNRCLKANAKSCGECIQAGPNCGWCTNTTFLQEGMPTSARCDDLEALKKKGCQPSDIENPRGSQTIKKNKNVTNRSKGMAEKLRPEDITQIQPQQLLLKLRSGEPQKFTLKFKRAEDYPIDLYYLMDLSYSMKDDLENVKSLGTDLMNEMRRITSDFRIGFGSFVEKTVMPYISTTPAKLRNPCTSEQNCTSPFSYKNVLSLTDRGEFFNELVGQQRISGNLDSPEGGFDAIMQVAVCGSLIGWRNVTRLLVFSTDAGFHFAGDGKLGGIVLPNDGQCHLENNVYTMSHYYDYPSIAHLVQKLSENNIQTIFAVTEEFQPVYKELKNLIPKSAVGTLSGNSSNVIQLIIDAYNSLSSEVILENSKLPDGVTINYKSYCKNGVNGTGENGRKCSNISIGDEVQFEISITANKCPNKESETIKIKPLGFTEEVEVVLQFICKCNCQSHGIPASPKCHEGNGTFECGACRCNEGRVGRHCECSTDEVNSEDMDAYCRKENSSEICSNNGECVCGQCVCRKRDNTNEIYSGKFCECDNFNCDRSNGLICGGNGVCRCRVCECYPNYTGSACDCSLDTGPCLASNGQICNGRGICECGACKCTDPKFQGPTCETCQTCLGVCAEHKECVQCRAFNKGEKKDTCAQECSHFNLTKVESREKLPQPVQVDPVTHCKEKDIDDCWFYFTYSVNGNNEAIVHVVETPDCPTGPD
Experimental: as §1
B5 was tested, and the “Absorbance 450 nm” value was 0.0959 A450. B6 was tested, and the “Absorbance 450 nm” value was 0.0755 A450. For B7, the “Absorbance 450 nm” value was 0.0766 A450. In the case of B8, the “Absorbance 450 nm” value is reported as 0.11 A450. For B9, the “Absorbance 450 nm” value was 0.0924 A450. B10 was tested, and the “Absorbance 450 nm” value was 0.0799 A450. In the case of B11, the “Absorbance 450 nm” value is reported as 0.0872 A450. With B12 the “Absorbance 450 nm” value was 0.17 A450.

The binders below were run against T4, recombinant human α4β1 integrin (human, UniProt P13612 34-977; P05556 21-728) (assay: ELISA, coated integrin, supernatant 1:10).
T4 construct: bought recombinant heterodimer (R&D Systems cat. 5668-A4) coated on the plate; also called rh-α4β1
T4 sequence (P13612 34-977 limits assumed, form in doubt, chain 1 of 2): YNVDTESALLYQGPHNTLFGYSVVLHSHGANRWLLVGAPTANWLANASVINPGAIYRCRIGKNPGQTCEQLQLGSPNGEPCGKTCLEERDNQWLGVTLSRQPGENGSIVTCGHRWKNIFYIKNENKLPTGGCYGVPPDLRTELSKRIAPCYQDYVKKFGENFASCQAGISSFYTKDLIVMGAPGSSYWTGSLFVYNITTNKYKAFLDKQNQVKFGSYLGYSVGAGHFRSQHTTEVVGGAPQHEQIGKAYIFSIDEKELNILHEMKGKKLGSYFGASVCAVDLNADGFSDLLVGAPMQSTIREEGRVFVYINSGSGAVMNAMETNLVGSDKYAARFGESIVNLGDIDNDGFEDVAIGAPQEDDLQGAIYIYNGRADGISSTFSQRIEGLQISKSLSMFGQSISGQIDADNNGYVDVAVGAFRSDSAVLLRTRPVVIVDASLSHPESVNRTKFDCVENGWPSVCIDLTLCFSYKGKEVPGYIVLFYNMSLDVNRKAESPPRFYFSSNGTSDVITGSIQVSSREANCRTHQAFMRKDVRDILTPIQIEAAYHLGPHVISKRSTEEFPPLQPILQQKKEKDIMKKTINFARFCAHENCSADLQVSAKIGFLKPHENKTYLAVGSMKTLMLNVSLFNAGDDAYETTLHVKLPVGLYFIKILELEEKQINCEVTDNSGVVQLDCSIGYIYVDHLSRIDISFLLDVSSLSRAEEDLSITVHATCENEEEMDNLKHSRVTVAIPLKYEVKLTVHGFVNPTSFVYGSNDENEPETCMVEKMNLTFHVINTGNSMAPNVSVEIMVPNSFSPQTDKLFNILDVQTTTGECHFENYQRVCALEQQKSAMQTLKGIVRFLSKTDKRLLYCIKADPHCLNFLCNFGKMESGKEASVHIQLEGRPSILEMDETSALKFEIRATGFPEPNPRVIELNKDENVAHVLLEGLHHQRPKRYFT
T4 sequence (P05556 21-728 limits assumed, form in doubt, chain 2 of 2): as the sequence (P05556 21-728 limits assumed, form in doubt, chain 2 of 2) above
Experimental: as §1
For B4, the “Absorbance 450 nm” value was 0.0769 A450. B5 was tested, and the “Absorbance 450 nm” value was 0.0801 A450. In the case of B6, the “Absorbance 450 nm” value is reported as 0.0848 A450. B7 was tested, and the “Absorbance 450 nm” value was 0.0843 A450. With B8 the “Absorbance 450 nm” value was 0.108 A450. B9 was tested, and the “Absorbance 450 nm” value was 0.0855 A450. In the case of B10, the “Absorbance 450 nm” value is reported as 0.081 A450. For B11, the “Absorbance 450 nm” value was 0.165 A450. For B12, the “Absorbance 450 nm” value was 0.171 A450.

The binders below were run against T5, purified recombinant human α5β1 integrin heterodimer, 6×His tagged (rh-α5β1); Acro Biosystems, cat. no. … (human, UniProt P08648 42-995; P05556 21-728) (assay: BLI (Octet), supernatant mAb on anti-mouse IgG Fc sensor, 20 nM rh-α5β1).
T5 construct: bought recombinant heterodimer; also called rh-α5β1-6×His tagged protein; His-tagged-α5β1
T5 sequence (P08648 42-995 limits assumed, form in doubt, chain 1 of 2): as the sequence (P08648 42-995 limits assumed, form in doubt, chain 1 of 2) above
T5 sequence (P05556 21-728 limits assumed, form in doubt, chain 2 of 2): as the sequence (P05556 21-728 limits assumed, form in doubt, chain 2 of 2) above
Source text: Anti-Mouse IgG Fc biosensors were used to load each clone supernatant. Assay steps were as follows: Sensor Check (30s)-->Load Ab (700s)-->Quench (480s)-->Baseline(480s)-->Ab Assoc. (600s)-->Dissoc. (600s).
B1 showed a Kd of 3.5 nM, a koff of 0.000911 s⁻¹ and a kon of 260000 M⁻¹ s⁻¹. B2 showed a Kd of 4.81 nM, a koff of 0.00139 s⁻¹ and a kon of 289000 M⁻¹ s⁻¹. With B3 the Kd was 5.02 nM, the koff was 0.00139 s⁻¹ and the kon was 277000 M⁻¹ s⁻¹.
